These results are taken from US20190160180A1 (FUSION PHARMACEUTICALS, published 2019).

Experiment [1] deals with T1, human Endosialin expressed by Sjsa-1 cells (human, UniProt Q9HCU0 18-757).
T1 construct: Endogenous Endosialin on human cell lines; also called Endosialin present on the cell plasma membrane; Endosialin on cell surface (Sjsa-1, T/G HA-VSMC, A673, SKNAS, A375 cells)
T1 sequence: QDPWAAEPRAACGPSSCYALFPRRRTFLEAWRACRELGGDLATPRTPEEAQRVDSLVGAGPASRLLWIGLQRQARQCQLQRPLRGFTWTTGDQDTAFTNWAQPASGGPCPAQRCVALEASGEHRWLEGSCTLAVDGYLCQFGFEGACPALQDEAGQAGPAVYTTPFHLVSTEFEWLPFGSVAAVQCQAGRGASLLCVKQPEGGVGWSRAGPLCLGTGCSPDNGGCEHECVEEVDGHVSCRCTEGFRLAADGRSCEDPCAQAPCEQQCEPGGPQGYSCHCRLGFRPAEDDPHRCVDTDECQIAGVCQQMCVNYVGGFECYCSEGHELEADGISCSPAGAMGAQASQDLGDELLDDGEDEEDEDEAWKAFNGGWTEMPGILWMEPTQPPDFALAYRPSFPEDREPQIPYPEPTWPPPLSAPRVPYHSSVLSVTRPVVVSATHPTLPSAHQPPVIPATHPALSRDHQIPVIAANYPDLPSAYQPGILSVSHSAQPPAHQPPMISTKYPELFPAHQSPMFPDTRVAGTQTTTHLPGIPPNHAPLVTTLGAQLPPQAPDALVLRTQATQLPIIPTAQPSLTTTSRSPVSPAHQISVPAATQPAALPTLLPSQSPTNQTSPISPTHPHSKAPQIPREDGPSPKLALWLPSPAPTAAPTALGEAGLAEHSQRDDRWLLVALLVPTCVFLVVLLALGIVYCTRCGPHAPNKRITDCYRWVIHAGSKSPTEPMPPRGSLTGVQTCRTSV
Description: flow cytometry on Sjsa-1 cells. As to the method:
(§1) Materials and Methods: (FIG. 2). (A) Ninety-six well plates (NUNC Maxisorp modules) were pre-coated with human recombinant Endosialin (1 μg/ml) overnight at 4° C. After blocking with 1% BSA in PBS+0.1% Tween-20 for 1 hour at 4° C., mMP-E-8.3, cMP-E-8.3, hMP-E-8.3 and a commercial antibody against Endosialin at the indicated concentration were added and incubated for 2 hours at room temperature. After several washes with PBS+0.1% Tween-20, a goat anti-mouse or anti-human IgG-HRP solution was added to each well and incubated for 1 hour at 37° C. After washes, stabilized chromogen was added to each well for at least 10 minutes in the dark, then the reaction was stopped with the addition of 1 N H₂SO4 and the absorbance was read at 450 nm with an ELISA reader. (B) Sjsa-1 human osteosarcoma cell line were stained with 1 μg/ml of mMP-E-8.3 antibody, or cMP-E-8.3 and hMP-E-8.3 at 100 ng/ml (blue line) and 1 ug/ml (green line) or with 1 μg/ml of a commercial antibody against Endosialin on ice for 30 minutes after incubation with a Goat anti-mouse/anti-human Alexa-488 conjugated antibodies for 1 hour on ice, cells were analyzed by flow cytometer (FACS). (C) Sjsa-1 human osteosarcoma cells were grown on glass coverslips for 24 hours. […]

For experiment [2], the target named is T2, human recombinant Endosialin (human, UniProt Q9HCU0 18-687, limits assumed).
T2 construct: Coated on ELISA plates at 1 ug/ml; also called TEM-1; TEM1
T2 sequence: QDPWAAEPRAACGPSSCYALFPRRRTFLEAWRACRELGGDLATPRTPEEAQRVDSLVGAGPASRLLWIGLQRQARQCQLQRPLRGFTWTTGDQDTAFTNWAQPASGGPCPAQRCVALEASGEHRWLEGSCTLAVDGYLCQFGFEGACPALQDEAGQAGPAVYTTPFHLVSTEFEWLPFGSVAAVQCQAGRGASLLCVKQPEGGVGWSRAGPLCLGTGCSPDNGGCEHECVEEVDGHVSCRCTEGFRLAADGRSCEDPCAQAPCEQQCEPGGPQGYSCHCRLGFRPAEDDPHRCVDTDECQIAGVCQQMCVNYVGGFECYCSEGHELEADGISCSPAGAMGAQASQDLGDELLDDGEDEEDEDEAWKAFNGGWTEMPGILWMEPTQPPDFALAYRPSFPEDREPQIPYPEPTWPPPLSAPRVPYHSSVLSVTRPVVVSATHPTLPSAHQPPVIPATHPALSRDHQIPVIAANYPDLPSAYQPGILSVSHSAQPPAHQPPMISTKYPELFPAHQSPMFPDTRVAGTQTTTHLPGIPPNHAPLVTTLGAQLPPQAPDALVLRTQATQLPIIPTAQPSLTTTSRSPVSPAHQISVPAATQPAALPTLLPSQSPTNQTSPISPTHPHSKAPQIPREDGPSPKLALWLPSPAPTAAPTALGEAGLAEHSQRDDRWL
The experiment is described as follows: ELISA, plate coated with recombinant Endosialin. As to the method:
as §1

B1: cMP-E-8.3 (antibody, V domains shown)
VH: QVQLQESGPGLVAPSQSLSITCTVSGFSLTGYGVNWVRQPPEKGLEWLGMIWVDGSTDYNSALKSRLNISKDKSKSQVFLKMNSLQTDDTARYYCARGGYGAMDYWGQGTSVTVSS
VL: DIQMNQSPSSLSASLGDTITITCHASQNINVWLTWYQQKPGNIPKLLIYKASNLHTGVPSRFSGSGSGTGFTLTISSLQPEDIATYYCQQGQSYPWTFGGGTKLEIKR
notes: also called chimeric cMP-E-8.3; chimerized version of mMP-E-8.3
For the molecule B1, the binding result in experiment [1] and in experiment [2] was “binds” each time.
